Biological target: myc-tagged human Patched-1 (Ptch1-1B-myc) (human) (UniProt Q13635)
Assay: co-IP

Sequence of UniProt Q13635 (Q13635 whole entry): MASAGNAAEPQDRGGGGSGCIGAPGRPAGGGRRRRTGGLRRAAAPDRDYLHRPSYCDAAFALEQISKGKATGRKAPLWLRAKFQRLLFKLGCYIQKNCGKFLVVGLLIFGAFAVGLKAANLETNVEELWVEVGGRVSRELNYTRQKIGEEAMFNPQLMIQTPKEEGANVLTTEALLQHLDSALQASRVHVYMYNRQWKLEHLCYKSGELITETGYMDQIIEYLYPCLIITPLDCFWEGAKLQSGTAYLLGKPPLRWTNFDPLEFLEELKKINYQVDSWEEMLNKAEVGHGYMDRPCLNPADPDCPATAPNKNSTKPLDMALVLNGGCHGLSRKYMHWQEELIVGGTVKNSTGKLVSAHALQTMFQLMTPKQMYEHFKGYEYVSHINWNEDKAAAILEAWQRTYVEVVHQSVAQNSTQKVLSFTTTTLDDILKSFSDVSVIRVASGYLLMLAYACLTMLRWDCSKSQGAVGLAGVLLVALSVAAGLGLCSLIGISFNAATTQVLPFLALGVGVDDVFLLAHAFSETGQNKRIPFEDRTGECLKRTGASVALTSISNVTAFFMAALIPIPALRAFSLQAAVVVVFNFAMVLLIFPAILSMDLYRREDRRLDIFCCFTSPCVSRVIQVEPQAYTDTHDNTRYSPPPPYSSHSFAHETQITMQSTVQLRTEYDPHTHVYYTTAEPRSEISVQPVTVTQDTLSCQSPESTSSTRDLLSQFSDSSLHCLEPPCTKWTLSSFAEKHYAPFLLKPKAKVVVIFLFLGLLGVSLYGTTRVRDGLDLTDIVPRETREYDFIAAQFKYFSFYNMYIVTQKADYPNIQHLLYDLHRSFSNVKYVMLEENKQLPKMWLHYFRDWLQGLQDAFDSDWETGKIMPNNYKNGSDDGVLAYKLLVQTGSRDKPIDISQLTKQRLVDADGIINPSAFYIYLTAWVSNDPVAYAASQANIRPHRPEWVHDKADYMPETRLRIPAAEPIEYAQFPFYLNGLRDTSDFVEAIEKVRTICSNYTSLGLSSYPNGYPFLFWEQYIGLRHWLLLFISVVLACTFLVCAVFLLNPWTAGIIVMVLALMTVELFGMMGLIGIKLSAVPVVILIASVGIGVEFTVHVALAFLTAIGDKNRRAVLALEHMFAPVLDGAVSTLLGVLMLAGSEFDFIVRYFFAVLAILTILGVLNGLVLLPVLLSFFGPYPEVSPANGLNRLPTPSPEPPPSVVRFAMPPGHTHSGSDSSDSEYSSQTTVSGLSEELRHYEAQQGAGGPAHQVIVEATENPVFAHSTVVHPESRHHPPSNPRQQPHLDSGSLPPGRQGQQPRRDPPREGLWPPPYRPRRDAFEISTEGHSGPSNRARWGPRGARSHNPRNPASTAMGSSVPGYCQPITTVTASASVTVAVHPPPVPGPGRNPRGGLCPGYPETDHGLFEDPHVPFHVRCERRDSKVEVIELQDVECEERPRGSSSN

percent reduction of FL-Dhh binding to Ptch1: 70 to 80%
Substance: N-terminal Sonic Hedgehog (N-Shh) (from UniProt Q62226 25-437) (domain or fragment)

Source: doi:10.1101/2020.03.03.974444
